# Results published in patent EP4740967A1 (Shanghai Escugen Biotechnology Co., Ltd., dated 2026).
# T1: human Claudin18.2 (human, UniProt P56856 1-261)
# T1 sequence (looked up): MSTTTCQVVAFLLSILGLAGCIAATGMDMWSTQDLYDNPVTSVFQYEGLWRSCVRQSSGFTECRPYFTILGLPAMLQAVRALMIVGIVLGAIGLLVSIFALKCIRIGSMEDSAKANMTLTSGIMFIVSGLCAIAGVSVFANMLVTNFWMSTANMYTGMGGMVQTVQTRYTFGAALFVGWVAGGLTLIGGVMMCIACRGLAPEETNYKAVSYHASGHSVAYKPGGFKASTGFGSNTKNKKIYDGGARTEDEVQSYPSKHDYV
# B1: 9D1-GGFG-Exatecan (antibody, human IgG1, kappa, V domains shown)
# VH: QIQLVQSGAEVKKPGASVKISCKASGYSFTDYHMNWVRQAPGKGLEWIGNIDPYYGSPTYNHKFKGRVTLTVDTSTSTAYMELSSLRSEDTAVYYCANYGRGNSFPYWGQGTLVTVSS
# VL: DIVMTQSPSSLAVSLGERATINCKSSQSLLNSGNQRNYLTWYQQKPGQPPKLLIYWASTRESGVPDRFSGSGSGTDFTLTISSLQAEDVAVYYCQNDYSFPFTFGQGTKLEIKR
# modifications: MC-GGFG-Exatecan linker-drug on reduced interchain cysteines (Conjugation Method 1, DAR 8)
# B2: 9D1-ELC122 (antibody, human IgG1, kappa, V domains shown)
# VH: B1 VH
# VL: B1 VL
# modifications: ELC122 linker-drug (SN38) on reduced interchain cysteines (Conjugation Method 1, DAR 8)
# B3: 9D1-LD-12 (antibody, human IgG1, kappa, V domains shown)
# VH: B1 VH
# VL: B1 VL
# modifications: LD-12 linker-drug (Exatecan) on reduced interchain cysteines (Conjugation Method 1, DAR 8)
# B4: 9D1-LD-57 (antibody, human IgG1, kappa, V domains shown)
# VH: B1 VH
# VL: B1 VL
# modifications: LD-57 linker-drug (MMAE) on partially reduced interchain cysteines (Conjugation Method 2, DAR 4)
# B5: 9D1-LD-65 (antibody, human IgG1, kappa, V domains shown)
# VH: B1 VH
# VL: B1 VL
# modifications: LD-65 linker-drug (Exatecan) on reduced interchain cysteines (Conjugation Method 1, DAR 8)
# B6: 9D1-LD-71 (antibody, human IgG1, kappa, V domains shown)
# VH: B1 VH
# VL: B1 VL
# modifications: LD-71 linker-drug (SN38) on reduced interchain cysteines (Conjugation Method 1, DAR 8)
# B7: 9D1-LD-72 (antibody, human IgG1, kappa, V domains shown)
# VH: B1 VH
# VL: B1 VL
# modifications: LD-72 linker-drug (Exatecan) on reduced interchain cysteines (Conjugation Method 1, DAR 8)
# B8: 9D1-LD-38 (antibody, human IgG1, kappa, V domains shown)
# VH: B1 VH
# VL: B1 VL
# modifications: LD-38 linker-drug (Exatecan) on reduced interchain cysteine; main conjugation form one LD-38 molecule per light chain; LD-38 linker-drug (Exatecan) on reduced interchain cysteines; main conjugation form three LD-38 molecules per heavy chain (DAR 8 nominal, 7.8 measured)
# B9: 9D1-LD-89 (antibody, human IgG1, kappa, V domains shown)
# VH: B1 VH
# VL: B1 VL
# modifications: LD-89 linker-drug (Exatecan) on reduced interchain cysteines (Conjugation Method 1; DAR printed as 1 in Table 1)
# B10: 9D1-LD-74 (antibody, human IgG1, kappa, V domains shown)
# VH: B1 VH
# VL: B1 VL
# modifications: LD-74 linker-drug (Exatecan, polysarcosine side chain) on reduced interchain cysteines (Conjugation Method 1, DAR 8)
# B11: 9D1-LD-37 (antibody, human IgG1, kappa, V domains shown)
# VH: B1 VH
# VL: B1 VL
# modifications: LD-37 linker-drug (Exatecan) on reduced interchain cysteines (Conjugation Method 1, DAR 8)
# B12: 9D1-LD-73 (antibody, human IgG1, kappa, V domains shown)
# VH: B1 VH
# VL: B1 VL
# modifications: LD-73 linker-drug (Exatecan, PEG side chain) on reduced interchain cysteines (Conjugation Method 1, DAR 8)
# B13: 9D1-LD-31-P2 (antibody, human IgG1, kappa, V domains shown)
# VH: B1 VH
# VL: B1 VL
# modifications: LD-31-P2 linker-drug (Exatecan) on reduced interchain cysteines (Conjugation Method 1, DAR 8)
# B14: 9D1-vc-PAB-MMAE (antibody, human IgG1, kappa, V domains shown)
# VH: B1 VH
# VL: B1 VL
# modifications: MC-VC-PAB-MMAE linker-drug on partially reduced interchain cysteines (Conjugation Method 2, DAR 4)
# B15: 9D1-LD-88 (antibody, human IgG1, kappa, V domains shown)
# VH: B1 VH
# VL: B1 VL
# modifications: LD-88 linker-drug (Exatecan) on reduced interchain cysteines (Conjugation Method 1; DAR printed as 1 in Table 1)
# B16: 9D1-LD-66 (antibody, human IgG1, kappa, V domains shown)
# VH: B1 VH
# VL: B1 VL
# modifications: LD-66 linker-drug (Exatecan) on reduced interchain cysteines (Conjugation Method 1, DAR 8)
# B17: 9D1-LD-31-P1 (antibody, human IgG1, kappa, V domains shown)
# VH: B1 VH
# VL: B1 VL
# modifications: LD-31-P1 linker-drug (Exatecan) on reduced interchain cysteines (Conjugation Method 1, DAR 8)
# B18: 9D1-LD-82 (antibody, human IgG1, kappa, V domains shown)
# VH: B1 VH
# VL: B1 VL
# modifications: LD-82 linker-drug (structure, preparation and DAR not described in the filing)
# Key:
# Assay in all cases: cell-based or functional assay
# human Claudin18.2 [1] = molecular target: T1, human Claudin18.2
# human Claudin18.2 [2] = molecular target: T1, human Claudin18.2; remark: listed apart in the source
# human Claudin18.2 [3] = molecular target: T1, human Claudin18.2; remark: listed apart in the source
# human Claudin18.2 [4] = molecular target: T1, human Claudin18.2; remark: listed apart in the source
Binder,"IC50 of in vitro cell killing on NUGC4-hClaudin18.2 cells (CCK-8 cell viability, 120 h) (human Claudin18.2 [1]) [nM]",IC50 of in vitro cell killing on MC38-hClaudin18.2 cells (AlamarBlue cell viability) (human Claudin18.2 [2]) [nM],"IC50 of in vitro cell killing on HEK293-hClaudin18.2 cells (AlamarBlue cell viability, 72 h) (human Claudin18.2 [3]) [nM]","IC50 of inhibition of proliferation of MC38-hClaudin18.2 cells (AlamarBlue cell viability, 72 h) (human Claudin18.2 [4]) [nM]"
B1,0.184,11,–,–
B2,–,–,0.628,–
B3,0.58,0.799,–,–
B4,0.053,0.53,–,–
B5,0.701,1.61,0.086,–
B6,–,–,0.397,–
B7,0.553,1.08,–,–
B8,0.728,1.36,0.09,0.632
B9,–,–,–,0.757
B10,1.16,2.22,–,–
B11,–,0.802,–,–
B12,1.27,1.4,–,–
B13,–,2.91,–,–
B14,0.064,0.407,–,–
B15,–,–,–,1.46
B16,0.996,1.09,0.996,–
B17,–,4.35,–,–
B18,–,–,–,8.01
